For assay [1], the target named is human glucagon receptor (human, UniProt P47871 26-477). The experiment in a line: cell-based or functional assay.
Assay [2] has as its target human glucagon-like peptide-1 receptor (human, UniProt P43220 24-463). The experiment in a line: cell-based or functional assay.

Non-standard residues stand in square brackets, D forms with d. Groups on a side chain read outwards from the residue. Primed or numbered codes have the meaning given here. No end group written: not given here. *: point of attachment. C18 diacid = O=C(O)CCCCCCCCCCCCCCCCC(=O)*; Palmitoyl = CCCCCCCCCCCCCCCC(=O)*; PEG2′ = not defined here; Aib = CC(C)(N)C(=O)O

Sequence of human glucagon-like peptide-1 receptor (P43220 24-463): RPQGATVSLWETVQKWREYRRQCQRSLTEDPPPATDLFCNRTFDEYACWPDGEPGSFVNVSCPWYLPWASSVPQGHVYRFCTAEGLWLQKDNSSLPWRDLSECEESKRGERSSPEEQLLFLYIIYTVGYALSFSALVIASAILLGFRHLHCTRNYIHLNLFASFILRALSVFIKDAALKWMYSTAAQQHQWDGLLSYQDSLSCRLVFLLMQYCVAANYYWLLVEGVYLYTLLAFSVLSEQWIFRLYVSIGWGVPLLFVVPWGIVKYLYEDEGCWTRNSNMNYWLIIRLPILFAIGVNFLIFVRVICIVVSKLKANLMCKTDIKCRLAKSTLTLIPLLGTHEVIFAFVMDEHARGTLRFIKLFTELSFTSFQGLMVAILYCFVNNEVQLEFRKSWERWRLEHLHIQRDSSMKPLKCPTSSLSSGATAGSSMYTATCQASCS

On to H[Aib]QGTFTSDK([PEG2′-PEG2′-Glu-C18 diacid])SKYLD[Aib]RRAQDFVQWLLDGGPSSGAPPPS-NH2 [Compound 22], for which, in assay [1], the “GCGR (EC50, nM), CRE-luciferase in HEK-293 cells” value (“GCGR (EC50, nM), CRE-luciferase” for short) was 0.32 nM. Also, the “GLP-1R (EC50, nM), CRE-luciferase in HEK-293 cells” value (from here on “GLP-1R (EC50, nM), CRE-luciferase”) in assay [2] worked out at 0.06 nM. For the molecule H[dS]QGTFTSDK([PEG2′-PEG2′-Palmitoyl])SKYLD[Aib]RRAQDFVQWLMNTGGPSSGAPPPS-NH2 [Compound 5], the “GCGR (EC50, nM), CRE-luciferase” value in assay [1] came to 0.43 nM. Moreover, in assay [2], the “GLP-1R (EC50, nM), CRE-luciferase” value worked out at 0.06 nM. With H[dS]QGTFTSDYSK([PEG2′-PEG2′-Glu-C18 diacid])KLD[Aib]RRAQDFVQWLMNTGGPSSGAPPPS-NH2 [Compound 18], the “GCGR (EC50, nM), CRE-luciferase” value in assay [1] stood at 0.18 nM. Besides, the “GLP-1R (EC50, nM), CRE-luciferase” value in assay [2] came to 0.76 nM.

Consider H[dS]QGTFTSDYSK([PEG2′-PEG2′-Palmitoyl])KLD[Aib]RRAQDFVQWLMNTGGPSSGAPPPS-NH2 [Compound 15], for which, in assay [1], the “GCGR (EC50, nM), CRE-luciferase” value came to 0.6 nM. The “GLP-1R (EC50, nM), CRE-luciferase” value in assay [2] is 1.5 nM. The matching figures for H[dS]QGTFTSDK([PEG2′-PEG2′-C18 diacid])SKYLD[Aib]RRAQDFVQWLMNTGGPSSGAPPPS-NH2 [Compound 6]: 0.33 nM and 0.1 nM. The matching figures for H[dS]QGTFTSDYSKYLDK([PEG2′-PEG2′-Glu-Palmitoyl])RRAQDFVQWLMNTGGPSSGAPPPS-NH2 [Compound 10]: 0.11 nM and 0.35 nM. The matching figures for H[dS]QGTFTSDYSKYLDEKAAK([PEG2′-PEG2′-Glu-C18 diacid])EFIEWLLNGGPSSGAPPPS-NH2 [Compound 4]: 0.39 nM and 0.13 nM.

With H[Aib]QGTFTSDK([PEG2′-PEG2′-Glu-Palmitoyl])SKYLDERRAQDFVQWLLDGGPSSGAPPPS-NH2 [Compound 19], the “GCGR (EC50, nM), CRE-luciferase” value in assay [1] was determined as 0.56 nM. Further, in assay [2], the “GLP-1R (EC50, nM), CRE-luciferase” value was 0.14 nM. The matching figures for H[dS]QGTFTSDYSKYLD[Aib]K([PEG2′-PEG2′-C18 diacid])RAQDFVQWLMNTGGPSSGAPPPS-NH2 [Compound 12]: 0.15 nM and 0.32 nM. The matching figures for H[dS]QGTFTSDYSKYLDK([PEG2′-PEG2′-C18 diacid])RRAQDFVQWLMNTGGPSSGAPPPS-NH2 [Compound 9]: 0.18 nM and 0.52 nM. The matching figures for H[dS]QGTFTSDYSKYLD[Aib]K([PEG2′-PEG2′-Glu-Palmitoyl])RAQDFVQWLMNTGGPSSGAPPPS-NH2 [Compound 13]: 0.16 nM and 0.44 nM.

Regarding H[dS]QGTFTSDYSK([PEG2′-PEG2′-Glu-Palmitoyl])KLD[Aib]RRAQDFVQWLMNTGGPSSGAPPPS-NH2 [Compound 17], the “GCGR (EC50, nM), CRE-luciferase” value in assay [1] was found to be 0.58 nM. In addition, the “GLP-1R (EC50, nM), CRE-luciferase” value in assay [2] amounted to 0.68 nM. The matching figures for H[dS]QGTFTSDYSKYLDEKAAK([PEG2′-PEG2′-Palmitoyl])EFIEWLLNGGPSSGAPPPS-NH2 [Compound 23]: 0.43 nM and 0.13 nM.

In the case of H[dS]QGTFTSDK([PEG2′-PEG2′-Glu-C18 diacid])SKYLD[Aib]RRAQDFVQWLMNTGGPSSGAPPPS-NH2 [Compound 8], the “GCGR (EC50, nM), CRE-luciferase” value in assay [1] is 0.18 nM. In addition, in assay [2], the “GLP-1R (EC50, nM), CRE-luciferase” value amounted to 0.2 nM.

In the case of H[dS]QGTFTSDK([PEG2′-PEG2′-Glu-Palmitoyl])SKYLD[Aib]RRAQDFVQWLMNTGGPSSGAPPPS-NH2 [Compound 7], the “GCGR (EC50, nM), CRE-luciferase” value in assay [1] stood at 0.34 nM. Still for that read-out and setting: then HSQGTFTSDYSKYLDSRRAQDFVQWLMNTKRNKNNIA (ligand) [Oxyntomodulin], with 6.2 nM. Regarding H[dS]QGTFTSDYSKYLDSK([PEG2′-PEG2′-Glu-C18 diacid])AAHDFVEWLLNGGPSSGAPPPS-NH2 [Compound 3], the “GCGR (EC50, nM), CRE-luciferase” value in assay [1] amounted to 1.02 nM. Also, in assay [2], the “GLP-1R (EC50, nM), CRE-luciferase” value is 0.59 nM. Turning to H[dS]QGTFTSDYSKYLDK([PEG2′-PEG2′-Glu-C18 diacid])RRAQDFVQWLMNTGGPSSGAPPPS-NH2 [Compound 11], the “GCGR (EC50, nM), CRE-luciferase” value in assay [1] amounted to 0.18 nM. For the same molecule, the “GLP-1R (EC50, nM), CRE-luciferase” value in assay [2] came to 0.15 nM. H[dS]QGTFTSDYSKYLDSK([PEG2′-PEG2′-Glu-C18 diacid])AAHDFVEWLLRA-NH2 [Compound 1]: the “GCGR (EC50, nM), CRE-luciferase” value in assay [1] turned out to be 0.54 nM. Moreover, the “GLP-1R (EC50, nM), CRE-luciferase” value in assay [2] is 0.23 nM. The matching figures for H[Aib]QGTFTSDK([PEG2′-PEG2′-Glu-Palmitoyl])SKYLD[Aib]RRAQDFVQWLLDGGPSSGAPPPS-NH2 [Compound 21]: 0.66 nM and 0.15 nM.

In the case of H[dS]QGTFTSDYSKYLDEKAAK([PEG2′-PEG2′-Glu-C18 diacid])EFIEWLLRA-NH2 [Compound 2], in assay [1], the “GCGR (EC50, nM), CRE-luciferase” value came out at 2.8 nM. Moreover, the “GLP-1R (EC50, nM), CRE-luciferase” value in assay [2] was determined as 0.39 nM. The matching figures for H[Aib]QGTFTSDK([PEG2′-PEG2′-Glu-C18 diacid])SKYLDERRAQDFVQWLLDGGPSSGAPPPS-NH2 [Compound 20]: 0.48 nM and 0.09 nM.

As for H[dS]QGTFTSDYSKYLDEKAAK([PEG2′-PEG2′-Glu-Palmitoyl])EFIEWLLNGGPSSGAPPPS-NH2 [Compound 24], the “GCGR (EC50, nM), CRE-luciferase” value in assay [1] was 0.58 nM. The “GLP-1R (EC50, nM), CRE-luciferase” value in assay [2] amounted to 0.16 nM. The matching figures for H[dS]QGTFTSDYSKYLD[Aib]K([PEG2′-PEG2′-Glu-C18 diacid])RAQDFVQWLMNTGGPSSGAPPPS-NH2 [Compound 14]: 0.19 nM and 0.4 nM. The matching figures for H[dS]QGTFTSDYSK([PEG2′-PEG2′-C18 diacid])KLD[Aib]RRAQDFVQWLMNTGGPSSGAPPPS-NH2 [Compound 16]: 0.2 nM and 0.6 nM.

The values are drawn from patent US20170183383A1 (JIANG XIANXING, published 2017).
